Assays:
[1] = target: LptB2F^R212GG complex (Escherichia coli) (UniProt P0A9V1); experiment: SPR; LptB2FG or LptB2F^R212GG covalently immobilised, increasing concentrations of monomeric LptA flowed over; fitted at equilibrium; details in Text S1
[2] = target: LptB2FG complex (Escherichia coli) (UniProt P0A9V1); experiment: as above

Kd [1]: 81 µM
Kd [2]: 74 µM
Substance: monomeric version of LptA (from UniProt P0ADV1 28-159) (domain or fragment)
